Results from patent US20220332804A1 (CSL INNOVATION, published 2022).
Substitutions are numbered along the chain they refer to.

Experiments:
Assay in all cases: SPR, KD relative to WT C2;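 also: biacore SPR at 37 °C, anti-C2 mAbs captured via immobilised goat anti-human IgG, C2 alanine or serine surface mutants as analytes, 1:1 model fitted, double-referenced sensograms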
human C2 L706A = biological target: T1, human C2 L706A (human, UniProt P06681 21-752)
T1 sequence: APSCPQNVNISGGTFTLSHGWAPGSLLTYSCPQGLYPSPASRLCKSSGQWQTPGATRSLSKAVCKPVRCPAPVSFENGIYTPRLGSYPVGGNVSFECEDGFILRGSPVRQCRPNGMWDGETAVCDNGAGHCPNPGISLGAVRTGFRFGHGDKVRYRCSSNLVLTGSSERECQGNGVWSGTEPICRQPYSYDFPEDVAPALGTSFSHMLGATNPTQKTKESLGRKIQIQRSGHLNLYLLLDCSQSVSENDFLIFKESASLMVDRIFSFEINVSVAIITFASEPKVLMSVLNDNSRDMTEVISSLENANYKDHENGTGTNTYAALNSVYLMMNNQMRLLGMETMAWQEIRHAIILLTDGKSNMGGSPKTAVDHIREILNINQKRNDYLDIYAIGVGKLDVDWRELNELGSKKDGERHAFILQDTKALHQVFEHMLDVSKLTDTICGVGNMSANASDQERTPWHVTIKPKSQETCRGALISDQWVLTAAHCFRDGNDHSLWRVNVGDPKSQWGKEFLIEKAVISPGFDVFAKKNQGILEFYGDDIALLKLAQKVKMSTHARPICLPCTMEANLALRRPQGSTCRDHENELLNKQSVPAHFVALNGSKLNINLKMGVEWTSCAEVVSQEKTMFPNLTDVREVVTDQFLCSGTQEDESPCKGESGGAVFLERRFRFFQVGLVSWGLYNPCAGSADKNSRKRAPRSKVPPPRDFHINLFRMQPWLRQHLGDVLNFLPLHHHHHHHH

human C2 D431A = biological target: T2, human C2 D431A (human, UniProt P06681 21-752)
T2 sequence: T1 sequence with D411A, A686L

human C2 E433A = biological target: T3, human C2 E433A (human, UniProt P06681 21-752)
T3 sequence: T1 sequence with E413A, A686L

human C2 P650A = biological target: T4, human C2 P650A (human, UniProt P06681 21-752)
T4 sequence: T1 sequence with P630A, A686L

B1: RF16-226 (antibody, human IgG4 S228P, lambda)
heavy: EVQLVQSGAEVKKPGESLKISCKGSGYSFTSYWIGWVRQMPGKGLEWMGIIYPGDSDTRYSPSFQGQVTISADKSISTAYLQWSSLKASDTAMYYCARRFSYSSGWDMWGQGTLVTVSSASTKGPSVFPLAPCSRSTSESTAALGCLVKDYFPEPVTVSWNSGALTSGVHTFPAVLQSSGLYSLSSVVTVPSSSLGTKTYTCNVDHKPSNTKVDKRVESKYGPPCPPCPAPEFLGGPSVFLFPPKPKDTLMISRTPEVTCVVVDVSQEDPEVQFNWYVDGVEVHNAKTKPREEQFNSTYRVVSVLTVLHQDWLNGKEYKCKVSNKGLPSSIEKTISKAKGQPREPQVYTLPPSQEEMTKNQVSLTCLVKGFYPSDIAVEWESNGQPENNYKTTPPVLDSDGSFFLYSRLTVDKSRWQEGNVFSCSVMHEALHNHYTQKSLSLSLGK
light: SYELTQPPSVSVSPGQTARITCSGDALTSKYVAWYQQKSGLAPLLVIYEDTRRPSGIPAKFSGSSSGSVATLTISGAHGDDEADYYCYSTDASGHQRVFGGGTKLTVLSQPKAAPSVTLFPPSSEELQANKATLVCLISDFYPGAVTVAWKADGSPVKAGVETTKPSKQSNNKYAASSYLSLTPEQWKSHRSYSCQVTHEGSTVEKTVAPTECS
notes: pH-dependent anti-C2 antibody from a phage display library; also called WT
Fold diff (human C2 L706A): 23 fold
Fold diff (human C2 D431A): 4 fold
Fold diff (human C2 E433A): 0 fold
Fold diff (human C2 P650A): 2 fold
